Reference: patent publication US20100034737A1 (published 2010)

Molecular target: T1, mouse JAM-C on the surface of GL261-233R (JAM-C rescued) and GL261-233RC (JAM-C knock-down) mouse glioma cells (mouse, UniProt Q9D8B7 30-310)
T1 construct: whole, on cells; also called JAM-C on the surface of glioma cells
T1 sequence (looked up): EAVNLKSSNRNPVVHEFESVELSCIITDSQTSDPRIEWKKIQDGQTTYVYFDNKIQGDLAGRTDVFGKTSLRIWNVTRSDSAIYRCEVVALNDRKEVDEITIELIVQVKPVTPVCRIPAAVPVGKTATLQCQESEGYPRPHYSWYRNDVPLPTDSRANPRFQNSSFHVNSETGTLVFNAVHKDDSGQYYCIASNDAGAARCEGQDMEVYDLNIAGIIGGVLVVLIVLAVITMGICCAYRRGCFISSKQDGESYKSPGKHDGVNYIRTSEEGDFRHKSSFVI
Test: flow cytometry of sJAM-B-Fc on GL261-233RC and GL261-233R cells (FIG. 22 A, B) and c-Src ELISA
Experimental: Cells were then washed with PBS, 0.2% FCS and 0.01% azide and analysed.
Amounts of total c-Src protein and of active phosphorylated-c-Src were quantified using FACE c-Src ELISA kit (Active Motif, CA, USA). […] At day 2, cells were incubated 30 min on ice and then 20 min at 37° C. with recombinant mouse JAM-B/Fc chimera antibody (R&D, MN, USA) at a final concentration of 5 μg/ml. Cells were then fixed and analysed with c-Src ELISA following the manufacturer's instructions (colorimetric Assay for adherent cells).

B1: Recombinant Mouse JAM-B/Fc Chimera (Fc fusion, UniProt Q9JI59 29-236, looked up)
chain: FSASKDHRQEVTVIEFQEAILACKTPKKTTSSRLEWKKVGQGVSLVYYQQALQGDFKDRAEMIDFNIRIKNVTRSDAGEYRCEVSAPTEQGQNLQEDKVMLEVLVAPAVPACEVPTSVMTGSVVELRCQDKEGNPAPEYIWFKDGTSLLGNPKGGTHNNSSYTMNTKSGILQFNMISKMDSGEYYCEARNSVGHRRCPGKRMQVDVLN
notes: extracellular domain; Bought from R&D; also called sJAM-B-Fc chimera; soluble JAM-B; not shown: Fc part, detected with anti-human Fc antibody
binding result: binds
